Assay results taken from patent publication US9187525B2, “Methods of treating ophthalmic diseases using NPR-B agonists” (Shire Orphan Therapies GmbH, dated 2015).
Numbered stars: 1 amine (or outer) side, 2 acyl side, 3 side chain; on linkers, the order of the positions; unused ones are H or OH. Square brackets hold non-standard residues; d marks the D form. Primed or numbered codes have the meaning given here. Ends that are not written are not given here. * marks the point of attachment. Pro(trans-4-NH2) = O=C([C@@H]1C[C@@H](N[*:3])CN1[*:1])[*:2]; Sni = (S)-nipecotic acid, O=C([C@H]1CCCN([*:1])C1)[*:2]; Egg = 2-Amino-3-piperidin-4-yl-propionic acid; Fhy = Amino-piperidin-3-yl-acetic acid; Hyp = O=C(O)[C@@H]1C[C@@H](O)CN1; NMeL = CN[C@@H](CC(C)C)C(=O)O; dDap(Me2)′ = not defined here; AR‑201‑58 = not defined here; AR‑201‑59 = not defined here; AR‑201‑62 = not defined here; AR‑201‑69 = not defined here; Tle = CC(C)(C)[C@H](N)C(=O)O; Ac6c = NC1(C(=O)O)CCCCC1; Nle = CCCC[C@H](N)C(=O)O; Octanoyl = CCCCCCCC(=O)*; Orn = NCCC[C@H](N)C(=O)O; dDap = NC[C@@H](N)C(=O)O; Ac5c = NC1(C(=O)O)CCCC1; Api = NC1(C(=O)O)CCNCC1; Et2 = not defined here; Hexanoyl = CCCCCC(=O)*; Nbt = 4-butyl-thiazole; Oct = not defined here; Sbt = 5-butyl-thiazole; Occ = octanoic acid; βAla = NCCC(=O)O

T1: natriuretic peptide receptor-B (human)
T1 chain: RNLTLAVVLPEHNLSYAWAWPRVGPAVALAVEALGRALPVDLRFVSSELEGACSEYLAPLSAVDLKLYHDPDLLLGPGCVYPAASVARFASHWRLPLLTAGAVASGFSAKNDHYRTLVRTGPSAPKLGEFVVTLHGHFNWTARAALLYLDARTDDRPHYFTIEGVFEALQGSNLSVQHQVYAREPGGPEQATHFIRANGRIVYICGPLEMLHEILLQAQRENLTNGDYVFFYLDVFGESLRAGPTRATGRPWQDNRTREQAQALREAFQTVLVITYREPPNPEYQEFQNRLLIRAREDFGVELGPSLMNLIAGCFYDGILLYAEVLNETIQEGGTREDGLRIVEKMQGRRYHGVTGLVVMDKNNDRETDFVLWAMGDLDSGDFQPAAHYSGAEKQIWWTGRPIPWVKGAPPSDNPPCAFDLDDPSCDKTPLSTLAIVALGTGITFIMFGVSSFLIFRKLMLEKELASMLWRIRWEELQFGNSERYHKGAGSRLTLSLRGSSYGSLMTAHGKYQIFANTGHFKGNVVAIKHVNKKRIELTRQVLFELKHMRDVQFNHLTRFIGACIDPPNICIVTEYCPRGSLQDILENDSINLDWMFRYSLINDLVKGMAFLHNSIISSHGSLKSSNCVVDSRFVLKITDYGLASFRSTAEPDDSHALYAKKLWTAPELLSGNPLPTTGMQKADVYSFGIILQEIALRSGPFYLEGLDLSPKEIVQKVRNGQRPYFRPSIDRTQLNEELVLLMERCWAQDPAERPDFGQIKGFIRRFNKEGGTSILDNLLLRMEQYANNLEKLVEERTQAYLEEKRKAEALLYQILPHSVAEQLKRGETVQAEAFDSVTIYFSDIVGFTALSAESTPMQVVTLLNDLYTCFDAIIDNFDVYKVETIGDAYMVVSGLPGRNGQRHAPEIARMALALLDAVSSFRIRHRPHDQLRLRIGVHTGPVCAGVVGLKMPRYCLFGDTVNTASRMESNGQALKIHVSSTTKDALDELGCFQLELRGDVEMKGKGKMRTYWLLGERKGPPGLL


Target: T1, natriuretic peptide receptor-B
Assay: cell-based or functional assay

Row | Binder | EC50 group, cGMP in GTM-3 cells
1 | Hexanoyl-G[dP]FGLKLDRI-NH2 [JAL-0636] | ≤ 15 µM
2 | [Occ][Sni]F[dL]L[Pro(trans-4-NH2)](Gly)[NMeL]DRI-NH2 [JAL-1322] | ≤ 1 µM
3 | [Occ][dA]F[Fhy]L[Hyp][NMeL]DRI-NH2 [JAL-1336] | ≤ 1 µM
4 | [Occ][dA]F[dL]L[Hyp][NMeL]TRI-NH2 [JAL-1334] | ≤ 5 µM
5 | [Occ][dA]F[dR]L[Hyp][NMeL]VRI-NH2 [JAL-1331] | ≤ 5 µM
6 | [Occ][dA]F[dL]L[Hyp][NMeL]DR[Ac5c]-NH2 [JAL-1335] | ≤ 5 µM
7 | XFRLXXDRI (HELM PEPTIDE1{[CCCCCCCCS(=O)(=O)CCC(=O)[*:2]].F.[dR].L.[Hyp].[meL].D.R.I.[am]}$$$$V2.0; N-terminus assumed; SMILES CCCCCCCCS(=O)(=O)CCC(=O)N[C@@H](Cc1ccccc1)C(=O)N[C@H](CCCNC(=N)N)C(=O)N[C@@H](CC(C)C)C(=O)N1C[C@H](O)C[C@H]1C(=O)N(C)[C@@H](CC(C)C)C(=O)N[C@@H](CC(=O)O)C(=O)N[C@@H](CCCNC(=N)N)C(=O)N[C@H](C(N)=O)[C@@H](C)CC) [JAL-1324] | ≤ 5 µM
8 | [AR‑201‑62]F[dR]L[Hyp][NMeL]DRI-NH2 (reading uncertain; also: printed as (AR-201-62)-Phe-arg-Leu-Hyp-Nml-Asp-Arg-Ile-NH2) [JAL-1341] | ≤ 5 µM
9 | [Sbt][Sni]F[dR]L[Hyp][NMeL]DRI-NH2 [JAL-1343] | ≤ 1 µM
10 | [Occ][dA]F[dR]L[Hyp][NMeL]TRI-NH2 [JAL-1333] | ≤ 5 µM
11 | [Oct][Sni]F[dL]L[Pro(trans-4-NH2)][NMeL]DRI-NH2 (reading uncertain; also: printed as Oct-Sni-Phe-leu-Leu-Tap-Nml-Asp-Arg-Ile-NH2) [JAL-1326] | ≤ 1 µM
12 | [Occ][Sni]F[dL]L[Pro(trans-4-NH2)](Ac)[NMeL]DRI-NH2 [JAL-1321] | ≤ 5 µM
13 | [Occ][dA]F[dR]L[Hyp][NMeL]D[Orn]I-NH2 [JAL-1327] | ≤ 5 µM
14 | [AR‑201‑69]F[dR]L[Hyp][NMeL]DRI-NH2 (reading uncertain; also: printed as (AR-201-69)-Phe-arg-Leu-Hyp-Nml-Asp-Arg-Ile-NH2) [JAL-1342] | ≤ 5 µM
15 | [AR‑201‑59]F[dR]L[Hyp][NMeL]DRI-NH2 (reading uncertain; also: printed as (AR-201-59)-Phe-arg-Leu-Hyp-Nml-Asp-Arg-Ile-NH2) [JAL-1340] | ≤ 15 µM
16 | [Occ][dA]F[Api]L[Hyp][NMeL]DRI-NH2 [JAL-1338] | ≤ 1 µM
17 | [AR‑201‑58]F[dR]L[Hyp][NMeL]DRI-NH2 (reading uncertain; also: printed as (AR-201-58)-Phe-arg-Leu-Hyp-Nml-Asp-Arg-Ile-NH2) [JAL-1339] | ≤ 15 µM
18 | XXFGLKLDRI (HELM PEPTIDE1{[CCCCCC(=O)[*:2]].[O=C(c1cccc(CN[*:1])c1)[*:2]].F.G.L.K.L.D.R.I.[am]}$$$$V2.0; SMILES CCCCCC(=O)NCc1cccc(C(=O)N[C@@H](Cc2ccccc2)C(=O)NCC(=O)N[C@@H](CC(C)C)C(=O)N[C@@H](CCCCN)C(=O)N[C@@H](CC(C)C)C(=O)N[C@@H](CC(=O)O)C(=O)N[C@@H](CCCNC(=N)N)C(=O)N[C@H](C(N)=O)[C@@H](C)CC)c1) [JAL-0647] | ≤ 15 µM
19 | [Occ][dA]F[dL]L[Hyp][NMeL]D[Orn]I-NH2 [JAL-1328] | ≤ 5 µM
20 | [Occ][dA]F[Egg]L[Hyp][NMeL]DRI-NH2 [JAL-1337] | ≤ 5 µM
21 | [Occ][Sni]F[dDap(Me2)′]L[Pro(trans-4-NH2)][NMeL]DRI-NH2 [JAL-1325] | ≤ 1 µM
22 | Hexanoyl-S[dP]FGLKLDRI-NH2 [JAL-0638] | ≤ 15 µM
23 | [Occ][Sni]F[dL]L[Pro(trans-4-NH2)](βAla)[NMeL]DRI-NH2 [JAL-1323] | ≤ 1 µM

The next lines start with the values.

Row | EC50 group, cGMP in GTM-3 cells | Binder
24 | ≤ 5 µM | Octanoyl-[dA]F[dDap](Me2)L[Pro(trans-4-NH2)][NMeL]DRI-NH2 [JAL-1347]
25 | ≤ 5 µM | Octanoyl-[dA]F[dR]L[Hyp][NMeL]DR[Ac6c]-NH2 [JAL-1359]
26 | ≤ 5 µM | [Nbt][Sni]F[dR]L[Hyp][NMeL]DRI-NH2 [JAL-1344]
27 | ≤ 15 µM | Octanoyl-[dA]F[dR]L[Hyp][NMeL]D[Nle]I-NH2 [JAL-1361]
28 | ≤ 15 µM | Nbt-[dA]F[dR]L[Hyp][NMeL]DRI-NH2 [JAL-1346]
29 | ≤ 1 µM | Octanoyl-[dA]F[Api]L[Pro(trans-4-NH2)][NMeL]DRI-NH2 [JAL-1350]
30 | ≤ 1 µM | Octanoyl-[Sni]F[dL]L[Pro(trans-4-NH2)](Et)[NMeL]DRI-NH2 [JAL-1349]
31 | ≤ 1 µM | Octanoyl-[dA]F[dL]L[Hyp][NMeL]DR[Ac6c]-NH2 [JAL-1358]
32 | ≤ 1 µM | [Occ][Sni]F[Api]L[Pro(trans-4-NH2)][NMeL]DRI-NH2 [JAL-1351]
33 | ≤ 15 µM | [Sbt][dA]F[dR]L[Hyp][NMeL]DRI-NH2 [JAL-1345]
34 | ≤ 15 µM | Octanoyl-[dA]F[dL]L[Hyp][NMeL]D[Nle]I-NH2 [JAL-1360]
35 | ≤ 5 µM | Octanoyl-[Sni]F[dL]L[Pro(trans-4-NH2)](Et2)[NMeL]DRI-NH2 (reading uncertain; also: printed as Occ-Sni-Phe-leu-Leu-Tap(Et2)-Nml-Asp-Arg-Ile-NH2) [JAL-1348]
36 | ≤ 1 µM | Octanoyl-[dA]F[dL]L[Hyp][NMeL]DR[Tle]-NH2 [JAL-1352]
37 | ≤ 15 µM | Octanoyl-[dA]F[dR]L[Hyp][NMeL]IRI-NH2 [JAL-1362]
